Experimental data published in patent publication US20030166232A1 (LUDWIG INSTITUTE FOR CANCER RESEARCH, published 2003).

T1: GST-PDZ 5 (glutathione S-transferase fused to PTPL1 residues 1856-1960) (Homo sapiens (Human), UniProt Q12923 1875-1979)
T1 construct: not shown: glutathione S-transferase (GST) encoded by the expression vector pGEX1 lambda T (Pharmacia)
T1 sequence: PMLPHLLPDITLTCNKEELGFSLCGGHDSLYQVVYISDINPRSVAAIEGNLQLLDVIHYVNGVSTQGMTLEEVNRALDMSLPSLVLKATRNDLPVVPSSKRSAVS

T2: GST-PDZ 2-3 (glutathione S-transferase fused to PTPL1 residues 1340-1579) (Homo sapiens (Human), UniProt Q12923 1359-1598)
T2 construct: not shown: glutathione S-transferase (GST) encoded by the expression vector pGEX1 lambda T (Pharmacia)
T2 sequence: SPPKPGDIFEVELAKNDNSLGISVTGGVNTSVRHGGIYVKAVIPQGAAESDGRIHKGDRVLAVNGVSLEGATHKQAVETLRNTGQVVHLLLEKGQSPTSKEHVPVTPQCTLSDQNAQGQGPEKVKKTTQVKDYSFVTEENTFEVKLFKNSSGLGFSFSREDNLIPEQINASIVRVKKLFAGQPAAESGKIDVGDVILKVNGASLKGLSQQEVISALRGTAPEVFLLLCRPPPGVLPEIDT

B1: GST-PDZ 1 (glutathione S-transferase fused to PTPL1 residues 1066-1166) (other)
chain: SSPEREITLVNLKKDAKYGLGFQIIGGEKMGRLDLGIFISSVAPGGPADFHGCLKPGDRLISVNSVSLEGVSHHAAIEILQNAPEDVTLVISQPKEKISKV
notes: not shown: glutathione S-transferase (GST) encoded by the expression vector pGEX1 lambda T (Pharmacia)
B2: PARG (PTPL1 Associated RhoGAP), the 150 kDa component from PC-3 cell lysate (other)
chain: MIAHKQKKTKKKRAWASGQLSTDITTSEMGLKSLSSNSIFDPDYIKELVNDIRKFSHILLYLKEAIFSDCFKEVIHIRLEELLRVLKSIMNKHQNLNSVDLQNAAEMLTAKVKAVNFTEVNEENKNDLFQEVFSSIETLAFTFGNILTNFLMGDVGNDSFLRLPVSRETKSFENVSVESVDSSSEKGNFSPLELDNVLLKNTDSIELALSYAKTWSKYTKNIVSWVEKKLNLELESTRNMVKLAEATRTNIGIQEFMPLQSLFTNALLNDIESSHLLQQTIAALQANKFVQPLLGRKNEMEKQRKEIKELWKQEQNKMLEAENALKKAKLLCMQRQDEYEKAKSSMFRAEEEHLSSSGGLAKNLNKQLEKKRRLEEEALQKVEEADELYKVCVTNVEERRNDVENTKREILAQLRTLVFQCDLTLKAVTVNLFHMQHLQAASLADRLQSLCGSAKLYDPGQEYSEFVKATNSTEEEKVDGNVNKHLNSSQPSGFGPANSLEDVVRLPDSSNKIEEDRCSNSADITGPSFIRSWTFGMFSDSESTGGSSESRSLDSESISPGDFHRKLPRTPSSGTMSSADDLDEREPPSPSETGPNSLGTFKKTLMSKAALTHKFRKLRSPTKCRDCEGIVVFQGVECEECLLVCHRKCLENLVIICGHQKLPGKIHLFGAEFTLVAKKEPDGIPFILKICASEIENRALCLQGIYRVCGNKIKTEKLCLALENGMHLVDISEFSSHDICDVLKLYLRQLPEPFILFRLYKEFIDLAKEIQHVNEEQETKKNSLEDKKWPNMCIEINRILLKSKDLLRQLPASNFNSLHFLIVHLKRVVDHAEENKMNSKNLGVIFGPSLIRPRPQTAPITISSLAEYSNQARLVEFLITYSQKIFDGSLQPQDVMCSIGVVDQGCFPKPLLSPEERDIERSMKSLFFSSKEDIHTSESESKIFERATSFEESERKQNALGKCDACLSDKAQLLLDQEAESASQKIEDGKAPKPLSLKSDRSTNNVERHTPRTKIRPVSLPVDRLLLASPPNERNGRNMGNVNLDKFCKNPAFEGVNRKDAATTVCSKFNGFDQQTLQKIQDKQYEQNSLTAKTTMIMPSALQEKGVTTSLQISGDHSINATQPSKPYAEPVRSVREASERRSSDSYPLAPVRAPRTLQPQHWTTFYKPHAPIISIRGNEEKPASPSAACPPGTDHDPHGLVVKSMPDPDKASACPGQATGQPKEDSEELGLPDVNPMCQRPRLKRMQQFEDLEDEIPQFV
notes: In the pull-down it was the endogenous, 35S-labelled 150 kDa protein in PC-3 cell lysate; also called 150 kDa protein
B3: GST-PDZ 3 (glutathione S-transferase fused to PTPL1 residues 1469-1579) (other)
chain: VKDYSFVTEENTFEVKLFKNSSGLGFSFSREDNLIPEQINASIVRVKKLFAGQPAAESGKIDVGDVILKVNGASLKGLSQQEVISALRGTAPEVFLLLCRPPPGVLPEIDT
notes: as for B1

Columns and labels:
Test in all cases: GST pull-down from 35S-labelled PC-3 cell lysate, SDS-gel, fluorography
[1] = biological target: B2
Experimental: (§1) PC-3 cells were obtained from American Type Culture Collection (Rockville, Md.) and cultured as described (Saras et al., 1994). Metabolic labeling of PC-3 cells was performed for 4 h in methionine-and cysteine-free MCDB 104 medium (Gibco/Life Technologies, Gaithersburg, Md.) with […] of ³⁵S-methionine and ³⁵S-cysteine (in vivo labeling mix; Amersham, Arlington Heights, Ill.). After labeling, the cells were solubilized in buffer containing 20 mM Tris-HCI, pH 7.4,150 mM NaCl, 10 mM EDTA, 0.5% Triton X-100, 0.5% deoxycholate, 1 mM dithiothreitol, 1.5% Trasylol (Bayer, Germany) and 1 mM phenylmethylsulfonyl fluoride (Sigma, St. Louis, Mo.). After 15 min on ice, cell debris was removed by centrifugation. Samples (1 ml) were then incubated for 1.5 h at 4° C. with 10 μg of GST-PDZ fusion proteins bound to glutathione-Sepharose 4B beads (Pharmacia). The beads were pelleted and washed four times with solubilization buffer. The protein complexes were eluted by boiling for 5 min in SDS-sample buffer (100 mM Tris-HCI, pH 8.8, 0.01% bromophenol blue, 36% glycerol, 4% SDS, 10 mM dithiothreitol) and analyzed by SDS-gel electrophoresis using 5-12% polyacrylamide gels (Blobel and Dobberstein, J. Cell Biol. 67:835-851, 1975). The gel was fixed, incubated with Amplify (Amersham) for 20 min, dried and subjected to fluorography.

[2] = biological target: T1, GST-PDZ 5 (glutathione S-transferase …)
Experimental: as §1

[3] = biological target: T2, GST-PDZ 2-3 (glutathione S-transferase …)
Experimental: as §1

Binder	binding result [1]	binding result [2]	binding result [3]
B1	no binding (tested: 10 µg of GST-PDZ fusion protein)	–	–
B2	–	no binding (tested: 10 µg of GST-PDZ fusion protein)	no binding (tested: 10 µg of GST-PDZ fusion protein)
B3	no binding (tested: 10 µg of GST-PDZ fusion protein)	–	–
